Reference: the supplement of paper PMC10567573

B1: SMG5 (parent)
chain: TRKLSPGKKRCKDIKRLLVNFMYL
B2: HDAC6 (parent)
chain: ACAQLATGAACRLVEAVLSGEVLN

Variants of: B1
Test: protein stability index of a GFP-peptide fusion (GPS, HEK-293T) (PSI 1-6); higher = more stable
Details: c terminus: a fixed tail appended
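Note: lentivirally expressed fusions sorted by FACS into six bins by GFP to DsRed ratio, PSI derived from sequencing read proportions per bin multiplied by bin number.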

Q: With TRKLSPGKKRCKDIKRLLVNFMYK [L24K] as the variant, how does the protein stability index read?
A: The protein stability index was 2.46.

Q: Which protein stability index does the source give for TRKLSPGKKRCKDIKRLLVNFMYP [L24P] here?
A: The protein stability index was 2.63.

Q: Which protein stability index does the source give for TRKLSPGKKRCKDIKRLLVNFMYH [L24H] here?
A: The protein stability index was 1.55.

Q: With TRKLSPGKKRCKDIKRLLVNFMYQ [L24Q] as the variant, how does the protein stability index read?
A: Its protein stability index is 2.04.

Q: Which protein stability index does the source give for TRKLSPGKKRCKDIKRLLVNFMYI [L24I] here?
A: Its protein stability index is 4.07.

Q: Which protein stability index does the source give for TRKLSPGKKRCKDIKRLLVNFMYT [L24T] here?
A: The protein stability index was 2.02.

Q: Which protein stability index does the source give for TRKLSPGKKRCKDIKRLLVNFMYY [L24Y] here?
A: The protein stability index was 2.08.

Q: With TRKLSPGKKRCKDIKRLLVNFMYR [L24R] as the variant, how does the protein stability index read?
A: The protein stability index was 2.39.

Q: For TRKLSPGKKRCKDIKRLLVNFMYS [L24S], which protein stability index is on record?
A: Its protein stability index is 1.98.

Q: With TRKLSPGKKRCKDIKRLLVNFMYW [L24W] as the variant, how does the protein stability index read?
A: The protein stability index was 1.9.

Q: Which protein stability index does the source give for TRKLSPGKKRCKDIKRLLVNFMYM [L24M] here?
A: Its protein stability index is 3.

Q: With TRKLSPGKKRCKDIKRLLVNFMYF [L24F] as the variant, how does the protein stability index read?
A: The protein stability index was 2.53.

Q: For TRKLSPGKKRCKDIKRLLVNFMYG [L24G], which protein stability index is on record?
A: The protein stability index was 2.92.

Variants of: B2
Test: as above
Details: c terminus: a fixed tail appended

Q: For ACAQLATGAACRLVEAVLSGIVLN [E21I], which protein stability index is on record?
A: Its protein stability index is 3.07.

Q: For ACAQLATGAACRLVEAVLSGWVLN [E21W], which protein stability index is on record?
A: The protein stability index was 2.67.

Q: Which protein stability index does the source give for ACAQLATGAACRLVEAVLSGCVLN [E21C] here?
A: The protein stability index was 2.87.

Q: For ACAQLATGAACRLVEAVLSSEVLN [G20S], which protein stability index is on record?
A: Its protein stability index is 2.89.

Q: For ACAQLATGAACRLVEAVLSPEVLN [G20P], which protein stability index is on record?
A: The protein stability index was 2.07.

Q: With ACAQLATGAACRLVEAVLSDEVLN [G20D] as the variant, how does the protein stability index read?
A: Its protein stability index is 2.25.

Q: For ACAQLATGAACRLVEAVLSGEPLN [V22P], which protein stability index is on record?
A: The protein stability index was 2.42.

Q: Which protein stability index does the source give for ACAQLATGAACRLVEAVLSGEHLN [V22H] here?
A: Its protein stability index is 4.01.

Q: Which protein stability index does the source give for ACAQLATGAACRLVEAVLSGEMLN [V22M] here?
A: Its protein stability index is 3.31.

Q: Which protein stability index does the source give for ACAQLATGAACRLVEAVLSGESLN [V22S] here?
A: The protein stability index was 1.36.

Q: With ACAQLATGAACTLVEAVLSGEVLN [R12T] as the variant, how does the protein stability index read?
A: The protein stability index was 2.92.

Q: For ACAQLATGAACDLVEAVLSGEVLN [R12D], which protein stability index is on record?
A: The protein stability index was 1.48.

Q: Which protein stability index does the source give for ACAQLATGAACYLVEAVLSGEVLN [R12Y] here?
A: The protein stability index was 3.46.

Q: For ACAQLATGAACNLVEAVLSGEVLN [R12N], which protein stability index is on record?
A: Its protein stability index is 2.52.

Q: With ACAQLATGAACMLVEAVLSGEVLN [R12M] as the variant, how does the protein stability index read?
A: Its protein stability index is 3.3.

Q: For ACAQLATGAACQLVEAVLSGEVLN [R12Q], which protein stability index is on record?
A: Its protein stability index is 1.97.

Q: For ACAQLATGAACRLVEAVTSGEVLN [L18T], which protein stability index is on record?
A: Its protein stability index is 2.02.

Q: Which protein stability index does the source give for ACAQLATGAACRLVEAVDSGEVLN [L18D] here?
A: Its protein stability index is 3.68.

Q: Which protein stability index does the source give for ACAQLATGAACRLVEAVRSGEVLN [L18R] here?
A: Its protein stability index is 2.29.

Q: Which protein stability index does the source give for ACAQLATGAACRLVEAVLSGEVDN [L23D] here?
A: Its protein stability index is 2.49.

Q: For ACAQLATGAACRLVEAVLSGEVHN [L23H], which protein stability index is on record?
A: The protein stability index was 3.51.

Q: Which protein stability index does the source give for ACAQLATGAACRLVEAVLSGEVPN [L23P] here?
A: The protein stability index was 1.96.

Q: Which protein stability index does the source give for ACAQLATGAACRLVEAVLSGEVVN [L23V] here?
A: The protein stability index was 1.26.

Q: For ACAQLATGAACRLVEAVLSGEVNN [L23N], which protein stability index is on record?
A: Its protein stability index is 1.54.

Q: For ACAQLATGAACRLVEAVLSGEVKN [L23K], which protein stability index is on record?
A: Its protein stability index is 1.7.

Q: With ACAQLATGAACRLVEAVLSGEVLK [N24K] as the variant, how does the protein stability index read?
A: The protein stability index was 2.61.

Q: With ACAQLATGAACRLCEAVLSGEVLN [V14C] as the variant, how does the protein stability index read?
A: The protein stability index was 3.54.

Q: Which protein stability index does the source give for ACAQLATGAACRLGEAVLSGEVLN [V14G] here?
A: The protein stability index was 2.17.

Q: For ACAQLATGAACRLNEAVLSGEVLN [V14N], which protein stability index is on record?
A: The protein stability index was 3.78.

Q: With ACAQLATGAACRLHEAVLSGEVLN [V14H] as the variant, how does the protein stability index read?
A: The protein stability index was 2.56.

Q: Which protein stability index does the source give for ACAQLATGAACRLMEAVLSGEVLN [V14M] here?
A: The protein stability index was 3.28.

Q: With SCAQLATGAACRLVEAVLSGEVLN [A1S] as the variant, how does the protein stability index read?
A: The protein stability index was 3.19.

Q: For CCAQLATGAACRLVEAVLSGEVLN [A1C], which protein stability index is on record?
A: The protein stability index was 1.16.

Q: With TCAQLATGAACRLVEAVLSGEVLN [A1T] as the variant, how does the protein stability index read?
A: Its protein stability index is 4.34.

Q: Which protein stability index does the source give for ECAQLATGAACRLVEAVLSGEVLN [A1E] here?
A: The protein stability index was 3.75.

Q: For APAQLATGAACRLVEAVLSGEVLN [C2P], which protein stability index is on record?
A: The protein stability index was 1.82.

Q: For ANAQLATGAACRLVEAVLSGEVLN [C2N], which protein stability index is on record?
A: Its protein stability index is 1.21.

Q: Which protein stability index does the source give for ALAQLATGAACRLVEAVLSGEVLN [C2L] here?
A: The protein stability index was 3.12.

Q: Which protein stability index does the source give for AKAQLATGAACRLVEAVLSGEVLN [C2K] here?
A: Its protein stability index is 1.99.

Q: Which protein stability index does the source give for ACAQLATGAACRDVEAVLSGEVLN [L13D] here?
A: The protein stability index was 3.58.

Q: With ACAQLATGAACRHVEAVLSGEVLN [L13H] as the variant, how does the protein stability index read?
A: The protein stability index was 3.21.

Q: Which protein stability index does the source give for ACAQLATGAACRRVEAVLSGEVLN [L13R] here?
A: Its protein stability index is 2.5.

Q: For ACAQLATGAACRPVEAVLSGEVLN [L13P], which protein stability index is on record?
A: Its protein stability index is 2.53.

Q: For ACAQLATGAACRMVEAVLSGEVLN [L13M], which protein stability index is on record?
A: Its protein stability index is 2.93.

Q: With ACAQLATGAACRSVEAVLSGEVLN [L13S] as the variant, how does the protein stability index read?
A: Its protein stability index is 1.68.

Q: With ACAQLATDAACRLVEAVLSGEVLN [G8D] as the variant, how does the protein stability index read?
A: The protein stability index was 2.67.

Q: Which protein stability index does the source give for ACAQLATMAACRLVEAVLSGEVLN [G8M] here?
A: The protein stability index was 1.28.

Q: For ACAQLATSAACRLVEAVLSGEVLN [G8S], which protein stability index is on record?
A: Its protein stability index is 1.94.

Q: For ACAQLQTGAACRLVEAVLSGEVLN [A6Q], which protein stability index is on record?
A: Its protein stability index is 2.74.

Q: Which protein stability index does the source give for ACAQLHTGAACRLVEAVLSGEVLN [A6H] here?
A: Its protein stability index is 1.

Q: For ACAQLETGAACRLVEAVLSGEVLN [A6E], which protein stability index is on record?
A: The protein stability index was 2.35.

Q: With ACAALATGAACRLVEAVLSGEVLN [Q4A] as the variant, how does the protein stability index read?
A: The protein stability index was 2.68.

Q: For ACAPLATGAACRLVEAVLSGEVLN [Q4P], which protein stability index is on record?
A: The protein stability index was 1.04.

Q: Which protein stability index does the source give for ACAQLATGAARRLVEAVLSGEVLN [C11R] here?
A: The protein stability index was 1.78.

Q: Which protein stability index does the source give for ACAQLATGAAKRLVEAVLSGEVLN [C11K] here?
A: The protein stability index was 2.29.

Q: With ACAQLATGAAERLVEAVLSGEVLN [C11E] as the variant, how does the protein stability index read?
A: Its protein stability index is 1.04.

Q: For ACAQLATGAAARLVEAVLSGEVLN [C11A], which protein stability index is on record?
A: Its protein stability index is 2.9.

Q: With ACAQLATGRACRLVEAVLSGEVLN [A9R] as the variant, how does the protein stability index read?
A: The protein stability index was 3.

Q: Which protein stability index does the source give for ACAQLATGGACRLVEAVLSGEVLN [A9G] here?
A: Its protein stability index is 1.69.

Q: For ACAQLATGNACRLVEAVLSGEVLN [A9N], which protein stability index is on record?
A: Its protein stability index is 1.09.

Q: For ACAQLATGWACRLVEAVLSGEVLN [A9W], which protein stability index is on record?
A: Its protein stability index is 2.99.

Q: With ACAQLATGKACRLVEAVLSGEVLN [A9K] as the variant, how does the protein stability index read?
A: Its protein stability index is 2.23.

Q: For ACAQLATGAACRLVEADLSGEVLN [V17D], which protein stability index is on record?
A: Its protein stability index is 3.56.

Q: With ACAQLATGAACRLVEAHLSGEVLN [V17H] as the variant, how does the protein stability index read?
A: Its protein stability index is 2.75.

Q: Which protein stability index does the source give for ACAQLATGAACRLVEASLSGEVLN [V17S] here?
A: Its protein stability index is 1.93.

Q: With ACSQLATGAACRLVEAVLSGEVLN [A3S] as the variant, how does the protein stability index read?
A: The protein stability index was 4.04.

Q: With ACFQLATGAACRLVEAVLSGEVLN [A3F] as the variant, how does the protein stability index read?
A: The protein stability index was 3.94.

Q: Which protein stability index does the source give for ACDQLATGAACRLVEAVLSGEVLN [A3D] here?
A: The protein stability index was 2.88.

Q: For ACAQNATGAACRLVEAVLSGEVLN [L5N], which protein stability index is on record?
A: Its protein stability index is 1.81.

Q: For ACAQDATGAACRLVEAVLSGEVLN [L5D], which protein stability index is on record?
A: Its protein stability index is 2.61.

Q: Which protein stability index does the source give for ACAQHATGAACRLVEAVLSGEVLN [L5H] here?
A: The protein stability index was 1.42.

Q: With ACAQGATGAACRLVEAVLSGEVLN [L5G] as the variant, how does the protein stability index read?
A: Its protein stability index is 2.42.

Q: For ACAQMATGAACRLVEAVLSGEVLN [L5M], which protein stability index is on record?
A: Its protein stability index is 2.68.

Q: For ACAQLATGAACRLVEPVLSGEVLN [A16P], which protein stability index is on record?
A: Its protein stability index is 2.28.

Q: For ACAQLATGAACRLVERVLSGEVLN [A16R], which protein stability index is on record?
A: The protein stability index was 2.18.

Q: With ACAQLATGAACRLVEDVLSGEVLN [A16D] as the variant, how does the protein stability index read?
A: The protein stability index was 2.78.

Q: With ACAQLATGAECRLVEAVLSGEVLN [A10E] as the variant, how does the protein stability index read?
A: The protein stability index was 1.82.

Q: With ACAQLATGAICRLVEAVLSGEVLN [A10I] as the variant, how does the protein stability index read?
A: Its protein stability index is 2.01.

Q: For ACAQLATGAPCRLVEAVLSGEVLN [A10P], which protein stability index is on record?
A: Its protein stability index is 2.

Q: For ACAQLATGADCRLVEAVLSGEVLN [A10D], which protein stability index is on record?
A: The protein stability index was 2.22.

Q: With ACAQLATGAACRLVHAVLSGEVLN [E15H] as the variant, how does the protein stability index read?
A: The protein stability index was 4.01.
